Laboratory results: article PMC3808276 (2013)

What was measured:
CXCL11 = target: T1, CXCL11 (Homo sapiens, UniProt O14625); test: ELISA
T1 chain: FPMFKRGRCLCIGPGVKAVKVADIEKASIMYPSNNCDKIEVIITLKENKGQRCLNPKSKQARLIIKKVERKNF

CXCL10 = CXCL10 (Homo sapiens, UniProt P02778); test: ELISA
Chain of CXCL10 (P02778 22-94): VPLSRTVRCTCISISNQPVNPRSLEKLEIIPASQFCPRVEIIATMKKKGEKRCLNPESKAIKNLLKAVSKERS

B1: Fg β15-66 15-66 (protein)
chain: MKHLLLLLLCVFLVKSQGVNDNEEGFFSARGHRPLDKKREEAPSLRPAPPPI
- Kd (CXCL11): 67 nM
- Kd (CXCL10): 68 nM
